Source: patent publication US20220119469

Experiments:
[1] = biological target: T1, Spy-C cMyBP-C (cMyBP-C of Spy-C mice with a TEV protease recognition site and a SpyTag sequence in the linker between domains C7 and C8), uncut
T1 chain: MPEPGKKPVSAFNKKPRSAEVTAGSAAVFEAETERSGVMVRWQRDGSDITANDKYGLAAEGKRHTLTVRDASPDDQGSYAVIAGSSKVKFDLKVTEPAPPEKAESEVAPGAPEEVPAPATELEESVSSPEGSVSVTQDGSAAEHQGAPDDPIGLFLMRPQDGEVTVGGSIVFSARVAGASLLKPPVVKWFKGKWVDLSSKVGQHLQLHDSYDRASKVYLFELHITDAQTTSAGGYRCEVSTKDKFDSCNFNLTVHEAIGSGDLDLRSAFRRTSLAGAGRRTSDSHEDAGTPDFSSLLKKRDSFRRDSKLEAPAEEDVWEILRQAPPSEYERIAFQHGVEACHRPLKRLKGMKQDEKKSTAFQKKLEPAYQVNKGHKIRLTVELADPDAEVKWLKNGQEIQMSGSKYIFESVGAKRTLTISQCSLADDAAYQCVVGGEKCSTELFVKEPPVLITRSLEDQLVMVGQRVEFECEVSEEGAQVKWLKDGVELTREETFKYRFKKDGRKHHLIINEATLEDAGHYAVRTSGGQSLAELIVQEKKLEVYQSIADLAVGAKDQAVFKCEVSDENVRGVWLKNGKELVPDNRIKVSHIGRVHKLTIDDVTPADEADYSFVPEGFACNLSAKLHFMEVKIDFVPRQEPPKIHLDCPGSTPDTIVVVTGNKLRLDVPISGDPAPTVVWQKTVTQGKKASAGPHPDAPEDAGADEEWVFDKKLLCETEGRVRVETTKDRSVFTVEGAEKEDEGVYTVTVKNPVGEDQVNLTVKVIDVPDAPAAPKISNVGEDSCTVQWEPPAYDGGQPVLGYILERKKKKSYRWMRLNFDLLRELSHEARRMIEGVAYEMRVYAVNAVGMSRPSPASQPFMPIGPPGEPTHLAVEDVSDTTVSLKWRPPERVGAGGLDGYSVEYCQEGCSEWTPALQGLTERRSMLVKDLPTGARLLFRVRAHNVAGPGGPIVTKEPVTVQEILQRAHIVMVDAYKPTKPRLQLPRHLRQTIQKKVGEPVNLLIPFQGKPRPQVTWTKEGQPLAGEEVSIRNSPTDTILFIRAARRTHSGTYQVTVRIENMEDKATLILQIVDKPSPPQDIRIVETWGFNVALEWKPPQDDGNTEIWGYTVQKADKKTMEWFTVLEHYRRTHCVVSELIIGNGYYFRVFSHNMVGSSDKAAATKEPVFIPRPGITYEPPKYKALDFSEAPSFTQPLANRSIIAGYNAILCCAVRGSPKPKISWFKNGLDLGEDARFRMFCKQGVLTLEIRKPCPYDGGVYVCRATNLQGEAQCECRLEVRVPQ

[2] = biological target: endogenous MyBP-C in wild type soleus tissue
[3] = biological target: endogenous MyBP-C of homozygous soleus tissue (with TEV site and SpyTag), uncut

B1: TEV protease (protein)
chain: GESLFKGPRDYNPISSTICHLTNESDGHTTSLYGIGFGPFIITNKHLFRRNNGTLLVQSLHGVFKVKNTTTLQQHLIDGRDMIIIRMPKDFPPFPQKLKFREPQREERICLVTTNFQTKSMSSMVSDTSCTFPSSDGIFWKHWIQTKDGQCGSPLVSTRDGFIVGIHSASNFTNTNNYFTSVPKNFMELLTNQEAQQWVSGWRLNADSVLWGGHKVFMSKPEEPFQPVKEATQLMN
cleavage in permeabilized myocytes [1]: Spy-C cMyBP-C was cleaved at the TEV site | size on western blot [2]: the size of endogenous MyBP-C in wild type tissue is unaffected by TEVp, washing and addition of replacement protein | decrease in molecular weight on western blot [3]: endogenous MyBP-C domains C1-C7 in homozygous tissue are cleaved with TEV protease (TEVp), shown by a decrease in molecular weight
